From US20220242962A1 (APTEVO RESEARCH AND DEVELOPMENT, published 2022)
Changes are numbered by the printed parent chain. Numbers in names are those of the source. Like-named read-outs stand apart in the source and are kept apart here. Each block holds one binder with its values, some of them ahead of it.

Legend:
[1] = target: T1, Fc gamma receptor RIIA H167 (human, UniProt P12318 36-218); assay: SPR, Fc captured, receptor as analyte
T1 construct: soluble SPR analyte
T1 sequence (looked up): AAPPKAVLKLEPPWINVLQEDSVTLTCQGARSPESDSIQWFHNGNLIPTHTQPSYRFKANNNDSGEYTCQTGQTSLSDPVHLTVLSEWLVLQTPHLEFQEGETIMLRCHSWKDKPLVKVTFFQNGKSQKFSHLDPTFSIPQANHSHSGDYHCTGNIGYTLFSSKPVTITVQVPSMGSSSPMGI
Protocol: (§1) Fc mutations to be potentially integrated into an ADAPTIR™ bispecific construct were analyzed for binding to the common Fc receptors (human and cyno) and C1Q, which is a component of the complement activation system. SPR experiments were conducted at 25° C. in HBS-EP+ buffer on a Biacore T200 system.
(§2) For these experiments, all four flow cells of a CM5 sensor chip were immobilized with goat F(ab′)2 anti-human Fc (Jackson ImmunoResearch) to a response level of ˜4000 RU. Fc variants and wild type Fc were diluted to 100 nM in HBS-EP+ and captured on the surface of the chip for 120 seconds at a flow rate of 10 μL/min. Fcγ receptors (human and cyno, all purchased from R&D Systems) and complement (C1Q, purchased from Quidel Corporation and Complement Technology, Inc) were diluted in HBS-EP+ and then flowed as analytes at 30 μL/min for 120 seconds followed by a 120 seconds dissociation. Regeneration was achieved by flowing 10 mM glycine pH 1.7 at 30 μL/min for 30 seconds followed by a 60 seconds stabilization. Flow cell 1 was always left as a blank (no captured protein) for purposes of background signal subtraction. Blank-subtracted sensorgrams for each captured Fc variant were inspected for the presence of binding to any of the Fcγ receptor proteins or complement. There are polymorphisms in the Human Fc receptors IIA and RIIIA, so both sequences were tested for binding.

[2] = target: T2, Fc gamma receptor RIIA R167 (human, UniProt P12318 36-218); assay: SPR, Fc captured, receptor as analyte
T2 construct: soluble SPR analyte
T2 sequence (looked up): T1 sequence (looked up) with H132R
Protocol: as §1, §2

[3] = target: T3, Fc gamma receptor RIIIB (human, UniProt O75015 17-200); assay: SPR, Fc captured, receptor as analyte
T3 construct: soluble SPR analyte
Protocol: as §1, §2

[4] = target: T4, Fc gamma receptor RI (human, UniProt P12314 16-288); assay: SPR, construct immobilized, receptor injected at 100 nM
T4 construct: also called FcγRI
Protocol: (§3) Fcγ receptor binding to bispecific proteins was measured by Surface Plasmon Resonance on a Biacore 8K instrument at room temperature. Bispecific proteins with modified Fc regions to reduce binding to Fcγ receptors were directly immobilized on the surface of a CM5 sensor chip to a surface density of 4000 RU. A bispecific ADAPTIR™ protein with a wild type Fc was similarly immobilized to the surface as a positive control and used as a comparator to evaluate the reduction in binding resulting from changes incorporated into the Fc region amino acid sequence. Fcγ receptors (purchased from R&D Systems) were diluted to either 100 nM (FcγRI) or 2 μM (all other Fcγ receptors) in HBS-EP+ buffer before injecting over the surface of the prepared sensor chip at 30 μL/min for 60 seconds. Maximum RU values during association phase of each injection were used to compare the extent of binding of the modified Fc to wild type value and are reported in Table 17 below.

[5] = target: T5, Full-length Human OX40 (human, UniProt P43489 29-277); assay: cell-based or functional assay
T5 sequence: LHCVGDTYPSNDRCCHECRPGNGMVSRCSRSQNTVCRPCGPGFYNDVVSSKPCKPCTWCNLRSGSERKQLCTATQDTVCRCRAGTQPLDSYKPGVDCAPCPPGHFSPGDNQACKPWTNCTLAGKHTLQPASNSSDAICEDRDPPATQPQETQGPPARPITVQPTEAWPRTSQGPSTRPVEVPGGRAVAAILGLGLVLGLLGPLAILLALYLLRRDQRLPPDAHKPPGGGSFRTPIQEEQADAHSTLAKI

[6] = target: T6, Full-length Human 4-1BB (human, UniProt Q07011 24-255); assay: cell-based or functional assay
[7] = target: T7, Full-length Cyno 4-1BB (cynomolgus monkey, UniProt Q07011 24-255 (human entry)); assay: flow cytometry on Jurkat cells transfected with cynomolgus 4-1BB, goat anti-human Fc secondary antibody, MFI (Mean)
T7 construct: on Jurkat or CHO cells; also called FOB006; cynomolgus 4-1BB
T7 chain: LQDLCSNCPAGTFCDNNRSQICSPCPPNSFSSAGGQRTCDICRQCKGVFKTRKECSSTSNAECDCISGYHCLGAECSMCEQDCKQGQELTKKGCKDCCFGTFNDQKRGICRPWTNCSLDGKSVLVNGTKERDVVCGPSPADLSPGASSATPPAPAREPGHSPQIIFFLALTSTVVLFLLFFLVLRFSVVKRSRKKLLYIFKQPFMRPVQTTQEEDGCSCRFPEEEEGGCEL
Protocol: (§4) FIGS. 12A-12D show the binding of anti-4-1BB x anti-OX40 constructs, with additional humanization in 4-1BB and altered orientations of binding domains, human (12A) or cynomolgus (12C) 4-1BB-expressing Jurkat cells or human (12B) or cynomolgus (12D) OX40-expressing CHOK1SV cells. Serial dilutions of ADAPTIR™ constructs were incubated with transfected cells and subsequently labelled with a fluorescently-conjugated goat-a-human Fc secondary antibody. […] (See Example 19.)
(§5) Binding studies were performed using the flow cytometry-based staining procedures described above.

[8] = target: T5, Full-length Human OX40; assay: flow cytometry, CHO cells expressing human OX40
Protocol: as §4, §5

[9] = target: T5, Full-length Human OX40; assay: cell-based or functional assay; remark: listed apart in the source
[10] = target: T6, Full-length Human 4-1BB; assay: cell-based or functional assay; remark: listed apart in the source
[11] = target: T8, Fc gamma receptor RIIIA V176 (human, UniProt P08637 17-208); assay: SPR, construct immobilized, receptor injected at 2 uM
T8 construct: soluble SPR analyte
Protocol: as §3

[12] = target: T3, Fc gamma receptor RIIIB; assay: as above
Protocol: as §3

T4 sequence (P12314 16-288 limits assumed): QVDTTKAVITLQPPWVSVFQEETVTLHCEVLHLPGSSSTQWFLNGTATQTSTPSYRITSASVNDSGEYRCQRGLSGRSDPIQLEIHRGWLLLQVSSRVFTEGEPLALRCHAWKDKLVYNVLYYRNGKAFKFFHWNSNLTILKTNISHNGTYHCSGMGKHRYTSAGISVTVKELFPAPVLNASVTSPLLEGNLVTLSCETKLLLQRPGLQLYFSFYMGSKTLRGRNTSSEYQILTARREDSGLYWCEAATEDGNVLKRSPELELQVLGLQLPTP
T6 sequence (Q07011 24-255): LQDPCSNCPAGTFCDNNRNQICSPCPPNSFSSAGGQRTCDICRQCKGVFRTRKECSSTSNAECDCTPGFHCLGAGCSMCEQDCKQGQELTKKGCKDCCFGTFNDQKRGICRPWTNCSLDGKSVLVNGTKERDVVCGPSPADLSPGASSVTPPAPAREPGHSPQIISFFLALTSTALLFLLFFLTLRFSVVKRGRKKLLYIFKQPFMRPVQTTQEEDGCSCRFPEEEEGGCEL
T3 sequence (O75015 17-200): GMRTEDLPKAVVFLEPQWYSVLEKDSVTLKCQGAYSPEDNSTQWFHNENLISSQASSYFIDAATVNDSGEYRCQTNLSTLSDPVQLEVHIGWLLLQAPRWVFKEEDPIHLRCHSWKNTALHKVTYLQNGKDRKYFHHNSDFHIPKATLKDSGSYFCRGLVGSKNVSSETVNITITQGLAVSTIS
T8 sequence (P08637 17-208 F176V): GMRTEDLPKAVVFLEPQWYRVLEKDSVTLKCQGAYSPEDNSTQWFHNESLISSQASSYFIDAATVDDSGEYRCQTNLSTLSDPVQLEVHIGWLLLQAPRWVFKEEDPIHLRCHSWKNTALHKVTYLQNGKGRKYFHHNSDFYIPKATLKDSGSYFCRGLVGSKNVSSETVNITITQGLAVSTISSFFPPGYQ

binding result [1]: no binding
binding result [2]: no binding
binding result [3]: no binding
B1: TSC 1005 (other)
chain: EPKSSDKTHTCPPCPAPPVAAPSVFLFPPKPKDTLMISRTPEVTCVVVDVSHEDPEVKFNWYVDGVEVHNAKTKPREEQYNSTYRVVSVLTVLHQDWLNGKEYKCAVSNKALPAPIEKTISKAKGQPREPQVYTLPPSRDELTKNQVSLTCLVKGFYPSDIAVEWESNGQPENNYKTTPPVLDSDGSFFLYSKLTVDKSRWQQGNVFSCSVMHEALHNHYTQKSLSLSPG
notes: IgG1 Fc with E233P, L234V, L235A, deletion of G236, G237A, K322A (EU); also called PVAdel TSC01005

Max RU value during association [4]: 0 RU
OX40 Reporter Assay EC50 [5]: 0.012 nM
OX40 Reporter Assay Max induction [5]: 1.99e+06
4-1BB Reporter Assay EC50 [6]: 0.018 nM
4-1BB Reporter Assay Max induction [6]: 5.5e+06
EC50 (read off the curve) [7]: ~0.3 nM
EC50 [8]: 0.29 nM
max MFI [8]: 10400 MFI
OX40 Reporter Assay EC50 [9]: 0.012 nM
OX40 Reporter Assay Max induction [9]: 534000
4-1BB Reporter Assay EC50 [10]: 0.019 nM
4-1BB Reporter Assay Max induction [10]: 6.1e+06
B2: FXX01066 (bispecific antibody)
chain: EVQLVQSGAEVKKPGASVKVSCKASGYTFTSYWMNWVRQAPGQGLEWMGNIYPSGGSTNYAQKFQGRVTMTVDTSTSTVYMELSSLRSEDTAVYYCASFSDGYYAYAMDYWGQGTLVTVSSGGGGSGGGGSGGGGSGGGGSEIVMTQSPATLSLSPGERATLSCRASQSVSSYLNWYQQKPGQAPRLLIYYASRRHTGIPARFSGSGSGTDFTLTISSLQPEDFAVYYCQQGYNLPYTFGQGTKVEIKEPKSSDKTHTCPPCPAPPAAAPSVFLFPPKPKDTLMISRTPEVTCVVVDVSHEDPEVKFNWYVDGVEVHNAKTKPREEQYNSTYRVVSVLTVLHQDWLNGKEYKCAVSNKALPAPIEKTISKAKGQPREPQVYTLPPSRDELTKNQVSLTCLVKGFYPSDIAVEWESNGQPENNYKTTPPVLDSDGSFFLYSKLTVDKSRWQQGNVFSCSVMHEALHNHYTQKSLSLSPGGGGSPSSYVLTQPPSVSVAPGQTARITCGGNNIGSKSVNWFQQKPGQAPVLVVYDDSGRPSGIPERFSGSTSGNTATLTISRVEAGDEADYYCQVWDSSSDHVVFGGGTKLTVLGGGGSGGGGSGGGGSGGGGSQVQLVESGGGVVQPGRSLRLSCAASGFTLSYYGMHWVRQAPGKGLEWVAAISHDGSDKYYADSVKGRFTISRDNSKNTLYLQMNSLRAEDTAVYYCSNDQFDPWGQGTLVTVSSR
notes: ADAPTIR scFv-Fc-scFv, anti-4-1BB (VH-VL) N-terminal, anti-OX40 C-terminal, PAA (del) Fc; also called FX01066

Max RU value during association [11]: 0 RU
B3: FXX01119 (bispecific antibody)
chain: B2 chain with Q500K, I541V, E543N, T690R
notes: ADAPTIR anti-4-1BB x anti-OX40, pI variant; PAA (del) Fc

Max RU value during association [4]: 0 RU
B4: FXX01111 (bispecific antibody)
chain: B2 chain with I541V, E543N
notes: as for B3

Max RU value during association [11]: 0 RU
Max RU value during association [12]: 0 RU
B5: FXX01115 (bispecific antibody)
chain: B2 chain with I541V, E543N, T690R
notes: as for B3

Max RU value during association [4]: 0 RU
OX40 Reporter Assay EC50 [5]: 0.011 nM
OX40 Reporter Assay Max induction [5]: 2.03e+06
4-1BB Reporter Assay EC50 [6]: 0.019 nM
4-1BB Reporter Assay Max induction [6]: 6.96e+06
EC50 (read off the curve) [7]: ~0.3 nM
EC50 [8]: 0.31 nM
max MFI [8]: 10500 MFI
B6: FXX01101 (bispecific antibody)
chain: B2 chain with T690R
notes: ADAPTIR anti-4-1BB (HL) x anti-OX40 with T86R; PAA (del) Fc; also called FX01101

OX40 Reporter Assay EC50 [5]: 0.01 nM
OX40 Reporter Assay Max induction [5]: 2.05e+06
4-1BB Reporter Assay EC50 [6]: 0.014 nM
4-1BB Reporter Assay Max induction [6]: 6.94e+06
EC50 (read off the curve) [7]: ~0.3 nM
EC50 [8]: 0.34 nM
max MFI [8]: 10500 MFI
B7: FXX01102 (bispecific antibody)
chain: B2 chain with Q500K, T690R
notes: ADAPTIR anti-4-1BB (HL) x anti-OX40 with Q17K and T86R; PAA (del) Fc; also called FX01102
